Assay [1] concerns the target human serum proteins. Description: cell-based or functional assay.
Assay [2] deals with D37. Description: RP-HPLC temperature profiling 5-77 C, pH 2, self-association (dimerization/oligomerization) relative to random coil control RC.
For assay [3], the target named is D37. The assay is described as follows: RP-HPLC temperature profiling (0.25% B/min gradient), control AMP, self-association relative to RC.
Assay [4] deals with D106 (D88K3DprK7DprK14DprK15DprK22DprK26Dpr). The assay is described as follows: RP-HPLC temperature profiling (0.25% B/min gradient), Mix 4, self-association relative to RC.
Assay [5] concerns the target D87 (D84K3ArgK7ArgK11ArgK18ArgK22ArgK26Arg). The assay is described as follows: RP-HPLC temperature profiling (0.25% B/min gradient), Mix 1, self-association relative to RC.
The target in assay [6] is D40. The assay is described as follows: RP-HPLC temperature profiling 5-77 C, pH 2, self-association (dimerization/oligomerization) relative to random coil control RC.
Assay [7] addresses D38. Described as above.
The target of assay [8] is D103 (D34(A1K)K26S). The assay is described as follows: RP-HPLC temperature profiling (0.25% B/min gradient), Mix 2, self-association relative to RC.
Assay [9] concerns the target D85 (D84K3OrnK7OrnK11OrnK18OrnK22OrnK26Orn). The assay is described as follows: RP-HPLC temperature profiling (0.25% B/min gradient), Mix 1, self-association relative to RC.
The target of assay [10] is D101 (D33(A1K)K26S). Description: RP-HPLC temperature profiling (0.25% B/min gradient), Mix 2, self-association relative to RC.
The target in assay [11] is D105 (D84K3DprK7DprK11DprK18DprK22DprK26Dpr). The assay is described as follows: RP-HPLC temperature profiling (0.25% B/min gradient), Mix 1, self-association relative to RC.
For assay [12] the target is unchanged. Description: RP-HPLC temperature profiling (0.25% B/min gradient), Mix 4, self-association relative to RC.
Assay [13] deals with D39. The assay is described as follows: RP-HPLC temperature profiling 5-77 C, pH 2, self-association (dimerization/oligomerization) relative to random coil control RC.
For assay [14], the target named is D88 (D34(A1K)). The assay is described as follows: RP-HPLC temperature profiling (0.25% B/min gradient), Mix 2, self-association relative to RC.

Non-standard residues stand in square brackets, D forms with d. No end group written: not given here.

B1: D37 (peptide)
peptide: [dA][dL][dK][dS][dL][dL][dK][dT][dL][dS][dK][dA][dA][dA][dA][dA][dL][dK][dT][dL][dL][dK][dA][dL][dS][dK]-NH2
modifications: N-terminus assumed
SMILES: CC(C)C[C@@H](NC(=O)[C@@H](C)N)C(=O)N[C@H](CCCCN)C(=O)N[C@H](CO)C(=O)N[C@H](CC(C)C)C(=O)N[C@H](CC(C)C)C(=O)N[C@H](CCCCN)C(=O)N[C@@H](C(=O)N[C@H](CC(C)C)C(=O)N[C@H](CO)C(=O)N[C@H](CCCCN)C(=O)N[C@H](C)C(=O)N[C@H](C)C(=O)N[C@H](C)C(=O)N[C@H](C)C(=O)N[C@H](C)C(=O)N[C@H](CC(C)C)C(=O)N[C@H](CCCCN)C(=O)N[C@@H](C(=O)N[C@H](CC(C)C)C(=O)N[C@H](CC(C)C)C(=O)N[C@H](CCCCN)C(=O)N[C@H](C)C(=O)N[C@H](CC(C)C)C(=O)N[C@H](CO)C(=O)N[C@H](CCCCN)C(N)=O)[C@H](C)O)[C@H](C)O
As for B1, the MIC against A. baumannii strain 649 in 25% human serum (no serum: 2.9) in [1] was greater than 92.8 µM. Besides, the figures for the PA (self-association parameter) in assay [2] and in assay [3] were 18.5 min and 37 min, respectively.

B2: D106 (D88K3DprK7DprK14DprK15DprK22DprK26Dpr) (peptide)
peptide: Ac-KLXSLLXTLSAAKXXKLATLLXALSX-NH2
modifications: not fully specified (some residues); printed as Ac-KL(Dpr)SLL(Dpr)TLSAAK(Dpr)(Dpr)KLATLL(Dpr)ALs(Dpr)-amide
On to B2, for which the PA (self-association parameter) in [4] amounted to 2.5 min.

B3: D87 (D84K3ArgK7ArgK11ArgK18ArgK22ArgK26Arg) (peptide)
peptide: Ac-KLRSLLRTLSRAKAAKLRTLLRALSR-NH2
modifications: not fully specified; printed as Ac-KL(Arg)SLL(Arg)TLS(Arg)AKAAKL(Arg)TLL(Arg)ALs(Arg)-amide; also: D-enantiomeric residues, extent not given here
In turn, B3 showed a PA (self-association parameter) in assay [5] of 3.4 min.

B4: D40 (peptide)
peptide: [dA][dL][dA][dS][dL][dL][dK][dT][dL][dS][dK][dA][dA][dK][dK][dA][dL][dK][dT][dL][dL][dK][dA][dL][dS][dA]-NH2
modifications: N-terminus assumed
SMILES: CC(C)C[C@@H](NC(=O)[C@@H](C)N)C(=O)N[C@H](C)C(=O)N[C@H](CO)C(=O)N[C@H](CC(C)C)C(=O)N[C@H](CC(C)C)C(=O)N[C@H](CCCCN)C(=O)N[C@@H](C(=O)N[C@H](CC(C)C)C(=O)N[C@H](CO)C(=O)N[C@H](CCCCN)C(=O)N[C@H](C)C(=O)N[C@H](C)C(=O)N[C@H](CCCCN)C(=O)N[C@H](CCCCN)C(=O)N[C@H](C)C(=O)N[C@H](CC(C)C)C(=O)N[C@H](CCCCN)C(=O)N[C@@H](C(=O)N[C@H](CC(C)C)C(=O)N[C@H](CC(C)C)C(=O)N[C@H](CCCCN)C(=O)N[C@H](C)C(=O)N[C@H](CC(C)C)C(=O)N[C@H](CO)C(=O)N[C@H](C)C(N)=O)[C@H](C)O)[C@H](C)O
Consider B4, for which the MIC against A. baumannii strain 649 in 25% human serum (no serum: 2.9) in assay [1] is greater than 92.8 µM. In [6], the PA (self-association parameter) came out at 18.7 min.

B5: D38 (peptide)
peptide: [dA][dL][dK][dS][dL][dL][dK][dT][dL][dS][dA][dA][dA][dK][dK][dA][dL][dA][dT][dL][dL][dK][dA][dL][dS][dK]-NH2
modifications: N-terminus assumed
SMILES: CC(C)C[C@@H](NC(=O)[C@@H](C)N)C(=O)N[C@H](CCCCN)C(=O)N[C@H](CO)C(=O)N[C@H](CC(C)C)C(=O)N[C@H](CC(C)C)C(=O)N[C@H](CCCCN)C(=O)N[C@@H](C(=O)N[C@H](CC(C)C)C(=O)N[C@H](CO)C(=O)N[C@H](C)C(=O)N[C@H](C)C(=O)N[C@H](C)C(=O)N[C@H](CCCCN)C(=O)N[C@H](CCCCN)C(=O)N[C@H](C)C(=O)N[C@H](CC(C)C)C(=O)N[C@H](C)C(=O)N[C@@H](C(=O)N[C@H](CC(C)C)C(=O)N[C@H](CC(C)C)C(=O)N[C@H](CCCCN)C(=O)N[C@H](C)C(=O)N[C@H](CC(C)C)C(=O)N[C@H](CO)C(=O)N[C@H](CCCCN)C(N)=O)[C@H](C)O)[C@H](C)O
Regarding B5, the MIC against A. baumannii strain 649 in 25% human serum (no serum: 0.7) in [1] is greater than 92.8 µM. In addition, in [7], the PA (self-association parameter) was 19.5 min.
In turn, Ac-KLKSLLKTLSAAKKKKLATLLKALSS-NH2 (not fully specified; also: D-enantiomeric residues, extent not given here) [D103 (D34(A1K)K26S)] yielded a PA (self-association parameter) in assay [8] of 7.2 min.

B6: D85 (D84K3OrnK7OrnK11OrnK18OrnK22OrnK26Orn) (peptide)
peptide: Ac-KLXSLLXTLSXAKAAKLXTLLXALSX-NH2
modifications: not fully specified (some residues); printed as Ac-KL(Orn)SLL(Orn)TLS(Orn)AKAAKL(Orn)TLL(Orn)ALS(Orn)-amide
In [9], B6 came in with a PA (self-association parameter) of 2.9 min.
As to Ac-KLKSLLKTLSKAKAAKLKTLLKALSS-NH2 (not fully specified; also: D-enantiomeric residues, extent not given here) [D101 (D33(A1K)K26S)], in assay [10], the PA (self-association parameter) is 7.2 min.

B7: D105 (D84K3DprK7DprK11DprK18DprK22DprK26Dpr) (peptide)
peptide: Ac-KLXSLLXTLSXAKAAKLXTLLXALSX-NH2
modifications: not fully specified (some residues); printed as Ac-KL(Dpr)SLL(Dpr)TLS(Dpr)AKAAKL(Dpr)TLL(Dpr)ALS(Dpr)-amide
On to B7, for which the PA (self-association parameter) in assay [11] and in assay [12] was 2.8 min in each case.

B8: D39 (peptide)
peptide: [dA][dL][dK][dS][dL][dL][dA][dT][dL][dS][dK][dA][dA][dK][dK][dA][dL][dK][dT][dL][dL][dA][dA][dL][dS][dK]-NH2
modifications: N-terminus assumed
SMILES: CC(C)C[C@@H](NC(=O)[C@@H](C)N)C(=O)N[C@H](CCCCN)C(=O)N[C@H](CO)C(=O)N[C@H](CC(C)C)C(=O)N[C@H](CC(C)C)C(=O)N[C@H](C)C(=O)N[C@@H](C(=O)N[C@H](CC(C)C)C(=O)N[C@H](CO)C(=O)N[C@H](CCCCN)C(=O)N[C@H](C)C(=O)N[C@H](C)C(=O)N[C@H](CCCCN)C(=O)N[C@H](CCCCN)C(=O)N[C@H](C)C(=O)N[C@H](CC(C)C)C(=O)N[C@H](CCCCN)C(=O)N[C@@H](C(=O)N[C@H](CC(C)C)C(=O)N[C@H](CC(C)C)C(=O)N[C@H](C)C(=O)N[C@H](C)C(=O)N[C@H](CC(C)C)C(=O)N[C@H](CO)C(=O)N[C@H](CCCCN)C(N)=O)[C@H](C)O)[C@H](C)O
For the molecule B8, the MIC against A. baumannii strain 649 in 25% human serum (no serum: 1.4) in [1] is greater than 92.8 µM. The molecule also showed a PA (self-association parameter) in [13] of 18.5 min.

B9: D88 (D34(A1K)) (peptide)
peptide: Ac-KLKSLLKTLSAAKKKKLATLLKALSK-NH2
modifications: not fully specified; printed as Ac-KL(Lys)SLL(Lys)TLSAAK(Lys)(Lys)KLATLL(Lys)ALS(Lys)-amide; also: D-enantiomeric residues, extent not given here
Consider B9, for which, in assay [14], the PA (self-association parameter) came out at 6.9 min.

(Values after patent publication US20200129634A1.)
